Experimental data as given in PMC9364112, “A natural fusion of flavodiiron, rubredoxin, and rubredoxin oxidoreductase domains is a self-sufficient water-forming oxidase of Trichomonas vaginalis” (The Journal of Biological Chemistry, 2022).

Assays:
[1] = molecular target: class F flavodiiron protein 3 from Trichomonas vaginalis (TvFDPF3) (Trichomonas vaginalis); experiment: cryo-EM structure; single-particle cryo-EM of holoTvFDPF3 at 0.8 mg/ml in buffer E (50 mM Hepes-NaOH pH 7.5, 150 mM NaCl); map without symmetry 6.6 Å, C2-symmetric map 6.8 Å; homology models of the domains docked into the density
TvFDPF3 (holoTvFDPF3) [2] = molecular target: T1, TvFDPF3 (holoTvFDPF3) (Trichomonas vaginalis, UniProt A2E972); experiment: anaerobic UV-visible titration, charge-transfer band at […] nm; format: binding
T1 construct: gene TVAG_121610; full length, 871 residues, C-terminal His6 (pET30a, E. coli BL21 Star DE3), ~100 kDa on SDS-PAGE; FDP-core head-to-tail dimer; holo preparation with full FAD/FMN
T1 sequence (A2E972 1-871): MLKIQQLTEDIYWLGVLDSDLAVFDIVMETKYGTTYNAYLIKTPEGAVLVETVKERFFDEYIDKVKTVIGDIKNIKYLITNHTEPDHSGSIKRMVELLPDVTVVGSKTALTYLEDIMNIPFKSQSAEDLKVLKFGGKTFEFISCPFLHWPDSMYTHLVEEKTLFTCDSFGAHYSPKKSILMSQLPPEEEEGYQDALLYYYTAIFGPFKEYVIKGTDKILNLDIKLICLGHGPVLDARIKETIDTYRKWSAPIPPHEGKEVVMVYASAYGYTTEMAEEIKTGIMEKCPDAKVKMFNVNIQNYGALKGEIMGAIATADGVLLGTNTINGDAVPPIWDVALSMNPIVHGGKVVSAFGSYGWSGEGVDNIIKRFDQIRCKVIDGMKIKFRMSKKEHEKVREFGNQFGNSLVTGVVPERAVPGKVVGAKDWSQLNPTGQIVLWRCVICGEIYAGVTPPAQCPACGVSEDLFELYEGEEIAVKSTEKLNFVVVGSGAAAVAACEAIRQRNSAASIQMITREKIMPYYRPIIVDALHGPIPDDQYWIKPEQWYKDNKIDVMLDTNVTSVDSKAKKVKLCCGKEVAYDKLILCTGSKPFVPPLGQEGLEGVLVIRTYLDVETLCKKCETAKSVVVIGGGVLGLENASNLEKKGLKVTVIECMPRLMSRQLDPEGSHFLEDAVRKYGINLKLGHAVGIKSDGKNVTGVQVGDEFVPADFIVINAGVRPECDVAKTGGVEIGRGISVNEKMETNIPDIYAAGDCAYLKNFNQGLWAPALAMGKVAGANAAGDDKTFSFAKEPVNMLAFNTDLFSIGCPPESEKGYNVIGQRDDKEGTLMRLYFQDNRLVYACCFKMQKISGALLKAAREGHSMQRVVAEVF

TvFDPF3 (holoTvFDPF3) [3] = molecular target: T1, TvFDPF3 (holoTvFDPF3); experiment: LC-MS quantification of bound flavin; format: binding; conditions: co-purified cofactor
From the text: LC-MS quantification of bound flavin on TvFDPF3 (holoTvFDPF3)

TvFDPF2 = molecular target: T2, TvFDPF2 (Trichomonas vaginalis, UniProt A2EVX8); experiment: LC-MS quantification of bound flavin; format: binding; conditions: co-purified cofactor, poorly occupied
T2 construct: gene TVAG_049830; full length, 871 residues, C-terminal His6 (pET30a, E. coli BL21 Star DE3); aggregation-prone; poor FAD and FMN occupancy
T2 sequence (A2EVX8 1-871): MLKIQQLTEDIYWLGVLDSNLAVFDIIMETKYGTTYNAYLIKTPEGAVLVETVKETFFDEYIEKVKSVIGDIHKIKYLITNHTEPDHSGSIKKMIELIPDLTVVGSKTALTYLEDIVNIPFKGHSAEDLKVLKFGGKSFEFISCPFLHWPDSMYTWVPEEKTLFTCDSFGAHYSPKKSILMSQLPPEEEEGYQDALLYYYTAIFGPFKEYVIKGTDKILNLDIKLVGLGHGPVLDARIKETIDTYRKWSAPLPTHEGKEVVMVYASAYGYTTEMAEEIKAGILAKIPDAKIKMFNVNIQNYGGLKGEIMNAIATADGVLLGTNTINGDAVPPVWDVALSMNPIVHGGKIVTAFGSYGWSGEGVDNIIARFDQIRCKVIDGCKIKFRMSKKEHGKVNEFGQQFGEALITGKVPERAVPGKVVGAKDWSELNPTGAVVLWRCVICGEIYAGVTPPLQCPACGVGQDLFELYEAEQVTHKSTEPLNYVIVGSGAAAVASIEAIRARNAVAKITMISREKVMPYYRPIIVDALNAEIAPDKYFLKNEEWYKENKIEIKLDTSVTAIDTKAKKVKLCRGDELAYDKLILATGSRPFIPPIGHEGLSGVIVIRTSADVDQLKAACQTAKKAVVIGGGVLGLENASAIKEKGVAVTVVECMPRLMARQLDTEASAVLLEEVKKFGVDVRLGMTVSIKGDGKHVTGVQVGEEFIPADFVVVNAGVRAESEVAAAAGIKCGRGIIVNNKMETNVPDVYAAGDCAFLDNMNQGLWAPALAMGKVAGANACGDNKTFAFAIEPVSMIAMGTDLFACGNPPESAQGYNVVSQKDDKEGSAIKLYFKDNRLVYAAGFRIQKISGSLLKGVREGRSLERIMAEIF
From the text: LC-MS quantification of bound flavin on TvFDPF2

TvFDPF1 = molecular target: T3, TvFDPF1 (Trichomonas vaginalis, UniProt A2EP06); experiment: LC-MS quantification of bound flavin; format: binding; conditions: co-purified cofactor
T3 construct: gene TVAG_263800; full length, 871 residues, C-terminal His6 (pET30a, E. coli BL21 Star DE3); 272 kDa by gel filtration
T3 sequence (A2EP06 1-871): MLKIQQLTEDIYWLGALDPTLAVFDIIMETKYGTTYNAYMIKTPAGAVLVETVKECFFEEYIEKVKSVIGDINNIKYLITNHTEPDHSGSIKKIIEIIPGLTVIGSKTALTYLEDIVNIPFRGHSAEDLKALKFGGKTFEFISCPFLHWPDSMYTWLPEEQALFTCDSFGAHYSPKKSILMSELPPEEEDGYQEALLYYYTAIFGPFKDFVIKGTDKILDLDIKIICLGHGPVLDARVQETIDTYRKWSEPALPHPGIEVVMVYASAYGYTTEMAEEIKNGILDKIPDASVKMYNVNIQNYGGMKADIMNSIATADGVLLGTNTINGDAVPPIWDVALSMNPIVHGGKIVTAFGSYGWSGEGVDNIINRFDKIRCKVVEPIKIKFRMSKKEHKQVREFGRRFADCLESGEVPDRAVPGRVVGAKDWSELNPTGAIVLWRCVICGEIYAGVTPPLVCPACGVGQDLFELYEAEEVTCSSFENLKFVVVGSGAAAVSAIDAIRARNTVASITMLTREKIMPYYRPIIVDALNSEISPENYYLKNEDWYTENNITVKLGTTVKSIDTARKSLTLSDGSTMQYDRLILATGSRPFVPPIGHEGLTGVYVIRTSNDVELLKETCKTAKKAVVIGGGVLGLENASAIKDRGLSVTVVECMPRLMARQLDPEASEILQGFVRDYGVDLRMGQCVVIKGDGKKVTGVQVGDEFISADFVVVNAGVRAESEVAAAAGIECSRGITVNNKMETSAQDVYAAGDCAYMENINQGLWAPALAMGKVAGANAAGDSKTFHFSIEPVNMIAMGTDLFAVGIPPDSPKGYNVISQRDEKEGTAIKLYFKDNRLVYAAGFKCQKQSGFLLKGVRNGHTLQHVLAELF
From the text: LC-MS quantification of bound flavin on TvFDPF1

purified protein [4] = substrate: NC(=O)C1=CN([C@@H]2O[C@H](COP(=O)(O)OP(=O)(O)OC[C@H]3O[C@@H](n4cnc5c(N)ncnc54)[C@H](OP(=O)(O)O)[C@@H]3O)[C@@H](O)[C@H]2O)C=CC1; experiment: purified protein; format: biochemical, Trichomonas vaginalis; conditions: preparation with 0.32 FAD and 0.009 FMN per monomer, O2 of air-saturated buffer, 50 mM Hepes-NaOH pH 7.5, 150 mM NaCl, 37 °C, NAD(P)H tested 0.5-600 μM
purified protein [5] = substrate: NC(=O)C1=CN([C@@H]2O[C@H](COP(=O)(O)OP(=O)(O)OC[C@H]3O[C@@H](n4cnc5c(N)ncnc54)[C@H](O)[C@@H]3O)[C@@H](O)[C@H]2O)C=CC1; experiment: purified protein; format: biochemical, Trichomonas vaginalis; conditions: preparation with 0.32 FAD and 0.009 FMN per monomer, O2 of air-saturated buffer, 50 mM Hepes-NaOH pH 7.5, 150 mM NaCl, 37 °C

class F flavodiiron protein 3 from Trichomonas vaginalis (TvFDPF3) (enzyme)
stoichiometry N [1]: 2

NC(=O)c1ccc[n+]([C@@H]2O[C@H](COP(=O)(O)OP(=O)(O)OC[C@H]3O[C@@H](n4cnc5c(N)ncnc54)[C@H](O)[C@@H]3O)[C@@H](O)[C@H]2O)c1 [NAD^+]
Kd (TvFDPF3 (holoTvFDPF3) [2]): ~130 nM

Cc1cc2nc3c(=O)[nH]c(=O)nc-3n(C[C@H](O)[C@H](O)[C@H](O)COP(=O)(O)O)c2cc1C [FMN]
FMN per protein monomer (TvFDPF3 (holoTvFDPF3) [3]; FDP domain): 0.92 ± 0.09 mol per mol monomer

Cc1cc2nc3c(=O)[nH]c(=O)nc-3n(C[C@H](O)[C@H](O)[C@H](O)COP(=O)(O)OP(=O)(O)OC[C@H]3O[C@@H](n4cnc5c(N)ncnc54)[C@H](O)[C@@H]3O)c2cc1C [FAD]
FAD per protein monomer (TvFDPF2): 0.32 ± 0.05 mol per mol monomer | FAD per protein monomer (TvFDPF1): 1.02 ± 0.05 mol per mol monomer | FAD per protein monomer (TvFDPF3 (holoTvFDPF3) [3]; NROR domain): 0.94 ± 0.09 mol per mol monomer

B1: TvFDPF2 (Trichomonas vaginalis G3) (protein)
chain: T2 sequence (A2EVX8 1-871)
notes: full length, 871 residues, C-terminal His6 (pET30a, E. coli BL21 Star DE3); aggregation-prone; poor FAD and FMN occupancy
kcat (purified protein [4]): 1.7 ± 0.3 s⁻¹ | kcat/Km (purified protein [4]): 1400 ± 300 M⁻¹ s⁻¹ | Km (purified protein [4]; kcat per monomer): 1171 ± 208 µM | Vmax (purified protein [4]; kcat per monomer): 1.1 µmol/min/mg | kcat (purified protein [5]): 9.6 ± 0.3 s⁻¹ | kcat/Km (purified protein [5]): 530000 ± 60000 M⁻¹ s⁻¹ | Km (purified protein [5]; kcat per monomer): 18 ± 2 µM | Vmax (purified protein [5]; kcat per monomer): 6.1 µmol/min/mg
